Measured values published in US20220098307A1 (WUHAN YZY BIOPHARMA, published 2022).

T1: Human BCMA (human, UniProt Q02223 1-54)
T1 sequence: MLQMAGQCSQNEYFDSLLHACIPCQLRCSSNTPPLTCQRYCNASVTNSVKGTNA


Legend:
Human CD3ε = molecular target: T2, Human CD3ε (human, UniProt P07766 23-126); experiment: flow cytometry, human T cells
T2 construct: CD3 on T cells isolated from human whole blood
How it was run: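 For cell-surface binding, T cells served for the CD3 arm and antigen-positive tumor cells (e.g. MM.1S or RPMI 8226 for CD38) for the tumor arm.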

Monkey CD3 = molecular target: T3, Monkey CD3 (monkey); experiment: flow cytometry, monkey T cells
T3 construct: whole, on cells; also called CD3 of monkey CD3 positive T cells

Human BCMA = molecular target: T1, Human BCMA; experiment: flow cytometry, human tumor cells (table of the BCMA series)
Source text: 1) Cell preparation: T cells isolated from CD3-positive human whole blood were used for a CD3 end affinity detection of multifunctional antibody molecule; positive tumor cells of corresponding antigen were used for detecting affinity of tumor antigen; for example, CD38-positive MM. 1S cells (purchased from the Cell Resource Center of Shanghai Institutes for Biological Sciences, Chinese Academy of Sciences) or RPMI 8226 cells (purchased from the Cell Resource Center of Shanghai Institutes for Biological Sciences, Chinese Academy of Sciences) were used for CD38 antigen detection, and PD-L1 positive H358 cells (purchased from the Cell Resource Center of Shanghai Institutes for Biological Sciences, Chinese Academy of Sciences) were used for PD-L1 antigen detection, and so on. The cells were resuspended with 1% FBS-PBS, adjusted to a density of 4×10⁶/ml, and 50 μl of cells were taken from each well, and then plated at 2×10⁵ per well. Cell plating was operated on ice
2) Addition of the antibody: according to the experimental design, the antibody was diluted gradually, and dilution of antibody was operated on ice. For example, the initial concentration of antibody for dilution was 3000 nM, and the antibody was diluted by 3 times with 11 concentration gradients. The diluted antibody was added to a cell well at 50 μl per well, mixed well, and shaked and incubated at 4° C. 1100 rpm/min for 2 h; after washing, the cells were resuspend in 1% FBS-PBS, and a diluted secondary antibody PE anti-human IgG FC (Biolegend, 409304) was added with a final concentration of 8 ug/ml and a volume of 50 μl/well. At the same time, a well only added with cells and secondary antibody was set as a control, the components were mixed well, and incubated under shaking at 1100 rpm/min at 4° C. for 1 h;
5) Data analysis: the data was analyzed by a flow analysis software FlowJo 7.6 thereby obtaining an average fluorescence intensity of the specific antibody concentration, plotted by a Graphpad Prism 5 with the antibody concentration (nM) as an abscissa and the average fluorescence intensity as an ordinate; the EC50 value was calculated by the method of One site—Specific binding, and the EC50 value indicated the cell affinity of the antibody to the corresponding target antigen.

Row | Binder | EC50 (Human CD3ε) [nM] | EC50 (Monkey CD3) [nM] | binding result (Human BCMA)
1 | M2IC-AG2 (bispecific antibody, human IgG1, kappa, structure 2 isotype control; CH2 AG2CH2) EVKLDETGGGLVQPGRPMKLSCVASGFTFSDYWMNWVRQSPEKGLEWVAQIRNKPYNYETYYSDSVKGRFTISRDDSKSSVYLQMNNLRVEDMGIYYCTGSYYGMDYWGQGTSVTVSSASTKGPSVFPLAPSSKSTSGGTAALGCLVKDYFPEPVTVSWNSGALTSGVHTFPAVLQSSGLYSLSSVVTVPSSSLGTQTYICNVNHKPSNTKVDKKVEPKSCDKTHTGGGSAAAQVQLVESGGGVVQPGRSLRLSCAASGFTFSTYAMNWVRQAPGKGLEWVARIRSKYNNYATYYADSVKDRFTISRDDSKNTLYLQMNSLRAEDTAVYYCARHGNFGNSYVSWFAYWGQGTLVTVSSGGGGSGGGGSGGGGSQTVVTQEPSLTVSPGGTVTLTCRSSTGAVTTSNYANWVQQKPGQAPRGLIGGTNKRAPGVPARFSGSLLGGKAALTLSGVQPEDEAEYYCALWYSNLWVFGGGTKVEIKGGGGSDKTHTCPPAPAPPVAGPSVFLFPPKPKDTLMISRTPEVTCVVVDVSHEDPEVQFNWYVDGVEVHNAKTKPREEQFNSTFRVVSVLTVVHQDWLNGKEYKCKVSNKGLPAPIEKTISKTKGQPREPQVYTLPPCRDELTKNQVSLWCLVKGFYPSDIAVEWESNGQPENNYKTTPPVLDSDGSFFLYSKLTVDKSRWQQGNVFSCSVMHEALHNHYTQKSLSLSPGK heavy: EVKLDETGGGLVQPGRPMKLSCVASGFTFSDYWMNWVRQSPEKGLEWVAQIRNKPYNYETYYSDSVKGRFTISRDDSKSSVYLQMNNLRVEDMGIYYCTGSYYGMDYWGQGTSVTVSSASTKGPSVFPLAPSSKSTSGGTAALGCLVKDYFPEPVTVSWNSGALTSGVHTFPAVLQSSGLYSLSSVVTVPSSSLGTQTYICNVNHKPSNTKVDKKVEPKSCDKTHTCPPAPAPPVAGPSVFLFPPKPKDTLMISRTPEVTCVVVDVSHEDPEVQFNWYVDGVEVHNAKTKPREEQFNSTFRVVSVLTVVHQDWLNGKEYKCKVSNKGLPAPIEKTISKTKGQPREPQVCTLPPSRDELTKNQVSLSCAVKGFYPSDIAVEWESNGQPENNYKTTPPVLDSDGSFFLVSKLTVDKSRWQQGNVFSCSVMHEALHNRFTQKSLSLSPGK light: DVVMTQTPLSLPVSLGDQASISCRSSQSLVHSNGNTYLRWYLQKPGQSPKVLIYKVSNRFSGVPDRFSGSGSGTDFTLKISRVEAEDLGVYFCSQSTHVPWTFGGGTKLEIKRTVAAPSVFIFPPSDEQLKSGTASVVCLLNNFYPREAKVQWKVDNALQSGNSQESVTEQDSKDSTYSLSSTLTLSKADYEKHKVYACEVTHQGLSSPVTKSFNRGEC | 535 | 607 | no binding
2 | M2IC-DG2 (bispecific antibody, human IgG1, kappa, structure 2 isotype control; CH2 DG2CH2) EVKLDETGGGLVQPGRPMKLSCVASGFTFSDYWMNWVRQSPEKGLEWVAQIRNKPYNYETYYSDSVKGRFTISRDDSKSSVYLQMNNLRVEDMGIYYCTGSYYGMDYWGQGTSVTVSSASTKGPSVFPLAPSSKSTSGGTAALGCLVKDYFPEPVTVSWNSGALTSGVHTFPAVLQSSGLYSLSSVVTVPSSSLGTQTYICNVNHKPSNTKVDKKVEPKSCDKTHTGGGSAAAQVQLVESGGGVVQPGRSLRLSCAASGFTFSTYAMNWVRQAPGKGLEWVARIRSKYNNYATYYADSVKDRFTISRDDSKNTLYLQMNSLRAEDTAVYYCARHGNFGNSYVSWFAYWGQGTLVTVSSGGGGSGGGGSGGGGSQTVVTQEPSLTVSPGGTVTLTCRSSTGAVTTSNYANWVQQKPGQAPRGLIGGTNKRAPGVPARFSGSLLGGKAALTLSGVQPEDEAEYYCALWYSNLWVFGGGTKVEIKGGGGSDKTHTCPPCPAPPVAGPSVFLFPPKPKDTLMISRTPEVTCVVVAVSHEDPEVQFNWYVDGVEVHNAKTKPREEQFNSTFRVVSVLTVVHQDWLNGKEYKCKVSNKGLPAPIEKTISKTKGQPREPQVYTLPPCRDELTKNQVSLWCLVKGFYPSDIAVEWESNGQPENNYKTTPPVLDSDGSFFLYSKLTVDKSRWQQGNVFSCSVMHEALHNHYTQKSLSLSPGK heavy: EVKLDETGGGLVQPGRPMKLSCVASGFTFSDYWMNWVRQSPEKGLEWVAQIRNKPYNYETYYSDSVKGRFTISRDDSKSSVYLQMNNLRVEDMGIYYCTGSYYGMDYWGQGTSVTVSSASTKGPSVFPLAPSSKSTSGGTAALGCLVKDYFPEPVTVSWNSGALTSGVHTFPAVLQSSGLYSLSSVVTVPSSSLGTQTYICNVNHKPSNTKVDKKVEPKSCDKTHTCPPCPAPPVAGPSVFLFPPKPKDTLMISRTPEVTCVVVAVSHEDPEVQFNWYVDGVEVHNAKTKPREEQFNSTFRVVSVLTVVHQDWLNGKEYKCKVSNKGLPAPIEKTISKTKGQPREPQVCTLPPSRDELTKNQVSLSCAVKGFYPSDIAVEWESNGQPENNYKTTPPVLDSDGSFFLVSKLTVDKSRWQQGNVFSCSVMHEALHNRFTQKSLSLSPGK light: DVVMTQTPLSLPVSLGDQASISCRSSQSLVHSNGNTYLRWYLQKPGQSPKVLIYKVSNRFSGVPDRFSGSGSGTDFTLKISRVEAEDLGVYFCSQSTHVPWTFGGGTKLEIKRTVAAPSVFIFPPSDEQLKSGTASVVCLLNNFYPREAKVQWKVDNALQSGNSQESVTEQDSKDSTYSLSSTLTLSKADYEKHKVYACEVTHQGLSSPVTKSFNRGEC | 357 | 570 | no binding
3 | M2IC-DG2D (bispecific antibody, human IgG1, kappa, structure 2 isotype control; CH2 DG2DCH2) EVKLDETGGGLVQPGRPMKLSCVASGFTFSDYWMNWVRQSPEKGLEWVAQIRNKPYNYETYYSDSVKGRFTISRDDSKSSVYLQMNNLRVEDMGIYYCTGSYYGMDYWGQGTSVTVSSASTKGPSVFPLAPSSKSTSGGTAALGCLVKDYFPEPVTVSWNSGALTSGVHTFPAVLQSSGLYSLSSVVTVPSSSLGTQTYICNVNHKPSNTKVDKKVEPKSCDKTHTGGGSAAAQVQLVESGGGVVQPGRSLRLSCAASGFTFSTYAMNWVRQAPGKGLEWVARIRSKYNNYATYYADSVKDRFTISRDDSKNTLYLQMNSLRAEDTAVYYCARHGNFGNSYVSWFAYWGQGTLVTVSSGGGGSGGGGSGGGGSQTVVTQEPSLTVSPGGTVTLTCRSSTGAVTTSNYANWVQQKPGQAPRGLIGGTNKRAPGVPARFSGSLLGGKAALTLSGVQPEDEAEYYCALWYSNLWVFGGGTKVEIKGGGGSDKTHTCPPCPAPPVAGPSVFLFPPKPKDTLMISRTPEVTCVVVAVSHEAPEVQFNWYVDGVEVHNAKTKPREEQFNSTFRVVSVLTVVHQDWLNGKEYKCKVSNKGLPAPIEKTISKTKGQPREPQVYTLPPCRDELTKNQVSLWCLVKGFYPSDIAVEWESNGQPENNYKTTPPVLDSDGSFFLYSKLTVDKSRWQQGNVFSCSVMHEALHNHYTQKSLSLSPGK heavy: EVKLDETGGGLVQPGRPMKLSCVASGFTFSDYWMNWVRQSPEKGLEWVAQIRNKPYNYETYYSDSVKGRFTISRDDSKSSVYLQMNNLRVEDMGIYYCTGSYYGMDYWGQGTSVTVSSASTKGPSVFPLAPSSKSTSGGTAALGCLVKDYFPEPVTVSWNSGALTSGVHTFPAVLQSSGLYSLSSVVTVPSSSLGTQTYICNVNHKPSNTKVDKKVEPKSCDKTHTCPPCPAPPVAGPSVFLFPPKPKDTLMISRTPEVTCVVVAVSHEAPEVQFNWYVDGVEVHNAKTKPREEQFNSTFRVVSVLTVVHQDWLNGKEYKCKVSNKGLPAPIEKTISKTKGQPREPQVCTLPPSRDELTKNQVSLSCAVKGFYPSDIAVEWESNGQPENNYKTTPPVLDSDGSFFLVSKLTVDKSRWQQGNVFSCSVMHEALHNRFTQKSLSLSPGK light: DVVMTQTPLSLPVSLGDQASISCRSSQSLVHSNGNTYLRWYLQKPGQSPKVLIYKVSNRFSGVPDRFSGSGSGTDFTLKISRVEAEDLGVYFCSQSTHVPWTFGGGTKLEIKRTVAAPSVFIFPPSDEQLKSGTASVVCLLNNFYPREAKVQWKVDNALQSGNSQESVTEQDSKDSTYSLSSTLTLSKADYEKHKVYACEVTHQGLSSPVTKSFNRGEC | 452 | 519 | no binding
